{"source": "paper PMC7863765", "key": {"[1]": {"target": "polyphosphorylated full-length SARS-CoV-2 nucleocapsid protein pN.1-419 (SARS-CoV-2) (UniProt P0DTC9)", "assay": "SEC-MALS"}, "[2]": {"target": "polyphosphorylated full-length SARS-CoV-2 nucleocapsid protein pN.1-419 (SARS-CoV-2) (UniProt P0DTC9)", "assay": "SEC"}}, "data": [{"substance": "untagged full-length human 14-3-3γ (from UniProt P61981 1-247) (natural protein)", "values": [{"measurement": "stoichiometry N (14-3-3γ chains per pN.1-419 chain (2:2))", "setting": "[1]", "value": 1}, {"measurement": "Kd", "setting": "[2]", "value": 1.5, "unit": "µM"}, {"measurement": "stoichiometry N (14-3-3γ chains per pN.1-419 chain (2:2))", "setting": "[2]", "value": 1}]}]}
